# Paper PMC10550236
# Assays:
# [1] = biological target: CC^DD, CC fragment with glutamic acid replaced with aspartic acid at two core hydrophilic positions (Apis mellifera); assay: SDS-PAGE under oligomer-forming (very low denaturation) conditions with Western blot; myc-tagged proteins translated in reticulocyte lysate; native loading buffer with no SDS; 0.01% SDS in the gel, 0.15% SDS as running buffer; anti-myc detection; complexes and monomers quantified by chemiluminescence
# [2] = biological target: Fem proteins (Apis mellifera); assay: SDS-PAGE under oligomer-forming (very low denaturation) conditions with Western blot; complexation of Fem proteins (fig. S6); the text does not name the method, taken from the experiments on Csd that precede it
Substance,reduction of homotrimer formation compared to the WT [1],stoichiometry N [2]
"CC^DD, CC fragment with glutamic acid replaced with aspartic acid at two core hydrophilic positions",50 to 90%,
Fem proteins (natural protein),,3
